Results on 167 variants are retold here after the RNAGym collection of RNA variant scans (doi:10.7554/elife.80360).

To fix the notation:
B1: Hairpin Ribozyme (parent)
chain: GUCCUCUUUCACGUGCGCGUGAAAGAGAGAAGUGAACCAGAGAAACACACGUUGUGGUAUAUUACCUGGUA

The data set covers variants of B1. Nature of the data set: self-cleavage, relative activity (ratio to wild type); higher = more cleavage; co-transcriptional.
For the variant A41G A61G, the self-cleavage came out at 0.179. For the variant C4U G15A, the self-cleavage came to 0.33.

Turning to U60C A71U, the self-cleavage amounted to 1.18.

Consider G27U C38A, for which the self-cleavage turned out to be 0.12. Regarding C18G A31C, the self-cleavage turned out to be 0.0659. For the variant A30G U55C, the self-cleavage was determined as 0.0826.

For A28G U70G, the self-cleavage was found to be 0.978. In the case of A43C G57C, the self-cleavage was determined as 0.204.

As to G1A G40A, the self-cleavage was 0.199. As to C6A U9C, the self-cleavage came to 0.262. As for A44G G51A, the self-cleavage was found to be 0.123. A44G G51U: the self-cleavage came out at 0.175. As for C4G U53A, the self-cleavage was found to be 0.15. Turning to A36U A44G, the self-cleavage stood at 0.183.

Consider G1U G56C, for which the self-cleavage was determined as 0.229. As for G27A U58G, the self-cleavage was found to be 0.151.

As to U58A G69A, the self-cleavage was determined as 0.201.

Regarding G57A U70G, the self-cleavage stood at 0.111. As for G27U A39G, the figure is 0.149; as for C46U G69C, 0.138. G15C G42C: the self-cleavage was 0.369.

A23U U58A: the self-cleavage was determined as 0.539.

With U7G A36U, the self-cleavage worked out at 0.507.

With A24G U63C, the self-cleavage came out at 0.0931. In the case of C18U G32C, the self-cleavage stood at 0.142. In the case of U2A G69U, the self-cleavage worked out at 0.151. For C48A C65A, the self-cleavage was found to be 0.131. For C38G U55G, the self-cleavage is 0.193. Take C12U U62G: the self-cleavage is 0.235. As for C4U C48G, the self-cleavage was 0.123. The value for C6A G17C was 0.424; that for C16G U53A was 0.855; that for G40U U62G was 0.111. Regarding C16U G56U, the self-cleavage was determined as 0.189. As for G21U A41C, the figure is 1.12; as for C12U A26G, 0.796; as for G32U A45G, 0.0481. Consider A43G C46A, for which the self-cleavage was 0.153. For the variant G34C A71U, the self-cleavage amounted to 1.27. Regarding U7C G17U, the self-cleavage was 0.892. For A11U U33G, the self-cleavage stood at 0.151. A11U A61G: the self-cleavage came out at 0.176. Consider U14A G17C, for which the self-cleavage came to 0.472. Turning to A22C A28U, the self-cleavage turned out to be 0.504. With G15U G57C, the self-cleavage was 0.128. With A43G G57U, the self-cleavage was found to be 0.151.

Turning to U9A A22U, the self-cleavage was 0.907. As to G19C U60G, the self-cleavage was 0.541. As for G17C A49U, the self-cleavage turned out to be 0.263. On to C16G G29U, for which the self-cleavage came out at 0.0825.

On to A36C A64C, for which the self-cleavage was found to be 0.11. For G17C G51U, the self-cleavage is 0.679. In the case of A36G C66U, the self-cleavage was 0.482. For A44U U70G, the self-cleavage was determined as 0.201. The value for G19U C38U was 0.481; that for U55A G56C was 0.203. For G32U G42A, the self-cleavage is 0.153.

In the case of G13C U33A, the self-cleavage stood at 0.0736. As for C18G A61U, the figure is 0.247.

For the variant G56A U70A, the self-cleavage is 0.223.

With U14C A47G, the self-cleavage turned out to be 0.118.

Regarding A36C U60A, the self-cleavage was 0.439. As to U52C U58G, the self-cleavage came to 0.606.

Consider C3U A26C, for which the self-cleavage is 0.314. Take C37G G42C: the self-cleavage was found to be 0.152. In the case of A30U G51C, the self-cleavage was found to be 0.164. For the variant G17U A59U, the self-cleavage worked out at 0.274. For G21A A41U, the self-cleavage came to 1.07. With A24U A28G, the self-cleavage was 0.731. In the case of C3A U60A, the self-cleavage was 0.515.

With A44C G68C, the self-cleavage came to 0.0374.

With U8C C38U, the self-cleavage was determined as 0.245.

Consider C4U G17U, for which the self-cleavage amounted to 0.313. G25A U60G: the self-cleavage was 0.291. Take U7G U70A: the self-cleavage came to 0.673. With A22C U58A, the self-cleavage was 0.68. Consider C4U G69C, for which the self-cleavage came out at 0.204. In the case of A35G A39U, the self-cleavage is 0.265.

Regarding A11C U58C, the self-cleavage came to 1.16. With U52G C66U, the self-cleavage worked out at 0.474. With A35G G56C, the self-cleavage is 0.0996. As for U20A A22C, the figure is 0.373. Consider C4A G40C, for which the self-cleavage stood at 0.0835. With C46G G57U, the self-cleavage turned out to be 0.167. As for A22C G32U, the figure is 0.107; as for A22C G57A, 0.119; as for A31C U52G, 0.0727.

In the case of G34A U62C, the self-cleavage came to 0.38. Turning to G54C U70A, the self-cleavage was 0.216. In the case of G25C G69C, the self-cleavage is 0.187. As for A47U U58A, the self-cleavage was determined as 0.106. As for U58A A61C, the self-cleavage was determined as 0.0874. Turning to A35C U52A, the self-cleavage stood at 1.14. C3A A36G: the self-cleavage was 0.712. Turning to C38A C46G, the self-cleavage was 0.133. In the case of G27U C50G, the self-cleavage came to 0.175. As for G19U A28U, the figure is 0.628; as for A31G G32U, 0.121. On to A39C U55A, for which the self-cleavage was 0.148. As for U9C A11G, the figure is 0.692; as for G19A A26G, 0.932; as for G32C C38G, 0.0953. Turning to U5A C10G, the self-cleavage is 0.129. Regarding A26G A31C, the self-cleavage was 0.114. For G54U G68C, the self-cleavage was 0.212. Consider G42A C66A, for which the self-cleavage came out at 0.0634. On to A23G U62G, for which the self-cleavage is 0.0705. As for A23C U67C, the figure is 0.249; as for U7G A35G, 0.916; as for U2G U55C, 0.168. As for A30G A35C, the figure is 0.141. Consider U5C A47G, for which the self-cleavage was determined as 0.332. As for C16A C66A, the figure is 0.108; as for U14G G27A, 0.189; as for U5G A61G, 0.0248.

Take G17C G32C: the self-cleavage turned out to be 0.183. Turning to G51C A71C, the self-cleavage amounted to 1.3.

On to U9A C65A, for which the self-cleavage turned out to be 0.69. Turning to A59U U70C, the self-cleavage was 0.199.

Consider A28C C65A, for which the self-cleavage is 0.231. For G32U U55A, the self-cleavage came out at 0.0859. As for C50U U52A, the figure is 0.456. Consider G19U G40A, for which the self-cleavage came out at 0.325. Take C6U A24G: the self-cleavage is 0.353. Consider A26C U63C, for which the self-cleavage came to 0.177.

Consider U9C G32C, for which the self-cleavage came to 0.0478. C12U G68A: the self-cleavage was 0.259. Turning to A23G G29C, the self-cleavage is 0.123. Turning to U62A G68A, the self-cleavage is 0.187.

Consider C46A G51C, for which the self-cleavage came out at 0.0397.

Take A31G C38A: the self-cleavage amounted to 0.157. With U14A G56A, the self-cleavage came out at 0.0617. For the variant C12A C38A, the self-cleavage worked out at 0.18. For the variant U33A U62G, the self-cleavage amounted to 0.174.

With C3A U63A, the self-cleavage came out at 0.0798. For U2G A39U, the self-cleavage was determined as 0.162. For G19C U70A, the self-cleavage is 0.673. Turning to C16G C38G, the self-cleavage came to 0.191. For U9A G42C, the self-cleavage was determined as 0.187. As for G27C G56U, the figure is 0.131; as for C3G A11G, 0.18. With G15C U62A, the self-cleavage was 0.14. With G21U A47U, the self-cleavage turned out to be 0.123.

For C3G A23G, the self-cleavage came out at 0.126. As for A35G G42U, the figure is 0.304. As to A39U G57C, the self-cleavage was determined as 0.134.

In the case of U7C U52G, the self-cleavage stood at 0.653. As for A31C U55A, the self-cleavage was 0.0627. Regarding U9G C65A, the self-cleavage worked out at 0.609. As for G27A C65G, the figure is 0.161; as for U8A G19A, 0.558; as for C50A A64G, 0.211. Turning to C18G A45G, the self-cleavage stood at 0.0821. On to C10A U52C, for which the self-cleavage stood at 0.81. For C12G G13U, the self-cleavage was 0.561. A61C U67A: the self-cleavage turned out to be 0.252. Regarding C3A C16A, the self-cleavage came out at 0.677. C18A A47G: the self-cleavage worked out at 0.216. The value for A22U G68A was 0.389; that for A47U A49U was 0.149; that for U7G G21U was 0.453. As for A45G C50G, the self-cleavage turned out to be 0.109.

As to C16A U52A, the self-cleavage was found to be 0.982. As to U58C U60C, the self-cleavage stood at 1.19. Turning to U9C G34U, the self-cleavage amounted to 1.09. For the variant A43G C50U, the self-cleavage amounted to 0.198. A31U C37A: the self-cleavage turned out to be 0.0463.
